This assay addresses SAMHD1 (T592A), constitutively active SAM domain and HD domain-containing protein 1 (UniProt Q9Y3Z3). Description: cell-based or functional assay.

The values below come from patent US20210292753A1.

SAMHD1 (T592A), constitutively active SAM domain and HD domain-containing protein 1, sequence (Q9Y3Z3 whole entry T592A, the tested form may be a part): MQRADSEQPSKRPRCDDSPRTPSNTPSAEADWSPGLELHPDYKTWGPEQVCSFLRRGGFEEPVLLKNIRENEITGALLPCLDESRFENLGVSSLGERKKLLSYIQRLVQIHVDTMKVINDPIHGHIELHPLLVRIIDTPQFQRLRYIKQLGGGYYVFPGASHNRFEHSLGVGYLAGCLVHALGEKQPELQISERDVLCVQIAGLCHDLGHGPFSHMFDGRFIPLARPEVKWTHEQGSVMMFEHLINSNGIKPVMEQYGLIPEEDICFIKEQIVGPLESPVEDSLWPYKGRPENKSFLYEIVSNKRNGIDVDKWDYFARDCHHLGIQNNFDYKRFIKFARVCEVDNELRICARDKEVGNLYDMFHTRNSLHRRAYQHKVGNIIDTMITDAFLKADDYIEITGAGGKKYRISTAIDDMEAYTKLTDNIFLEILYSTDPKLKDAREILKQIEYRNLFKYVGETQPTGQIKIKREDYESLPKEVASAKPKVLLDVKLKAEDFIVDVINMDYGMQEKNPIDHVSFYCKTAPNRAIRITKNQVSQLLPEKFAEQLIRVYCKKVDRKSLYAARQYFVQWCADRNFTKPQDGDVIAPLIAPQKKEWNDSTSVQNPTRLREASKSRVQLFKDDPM

For the substance “VPX^ROD (Vpx from the ROD HIV-2 isolate) (from UniProt P06939 1-112)”, the editing efficiency, mutation 65-nt from the nick, relative to no SAMHD1^p- turned out to be 78%.
“VPX^RH2-1 (variant of VPX from HIV-2 clinical isolate RH2-1) (from UniProt P20881 1-112)” registered an editing efficiency, RW2I, mutation 2-nt from the nick, SAMHD1 (T592A) coexpressed of 64%.
